Assay results published in patent US5461032.

Biological target: voltage-sensitive sodium channel of nerve membrane (house fly, Musca domestica, third instar larvae) (Musca domestica)

Question: Which activity of insect peripheral nerve preparations does the source give for “toxin 4 of the scorpion Leiurus quinquestriatus (peptide)” here?
Answer: > 500 nM
